Laboratory results taken from patent US20110263827A1 (AbbVie / Abbott, published 2011).

Columns and labels:
ErbB3 = molecular target: T1, ErbB3 (UniProt P21860 20-643, limits assumed, biotinylated); assay: direct bind ELISA, N-term VD;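 further: antibody or DVD-Ig preparations bound to immobilized target antigen on ELISA plates, 1 h at room temperature, TMB detection read as absorbance at 450 nm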
T1 construct: ELISA antigen

EGFR = molecular target: T2, EGFR (UniProt P00533 25-645, limits assumed, biotinylated); assay: direct bind ELISA, C-term VD;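 further: ELISA with antibody or DVD-Ig preparations applied to target antigen-coated plates for 1 h at room temperature, TMB colour development, absorbance read at 450 nm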
T2 construct: ELISA antigen; construct not described

| Binder | EC50 (ErbB3) [nM] | EC50 (EGFR) [nM] |
| --- | --- | --- |
| DVD330 (bispecific antibody, DVD-Ig; HC S, LC S; variable parts only) VH: EVQLVESGGGLVQPGGSLRLSCAASGFTFSIYSMNWVRQAPGKGLEWVSYISSSSSTIYYADSVKGRFTISRDNAKNSLYLQMNSLRDEDTAVYYCARDRGDFDAFDIWGQGTMVTVSSASTKGPQVQLQESGPGLVKPSQTLSLTCTVSGYSISSDFAWNWIRQPPGKGLEWMGYISYSGNTRYQPSLKSRITISRDTSKNQFFLKLNSVTAADTATYYCVTAGRGFPYWGQGTLVTVSS VL: DIQMTQSPSSLSASVGDRVTITCQASQDITNYLNWYQQKPGKAPKLLIYDASNLETGVPSRFSGSGSGTDFTFTISSLQPEDIATYNCQQCENFPITFGQGTRLEIKRTVAAPDIQMTQSPSSMSVSVGDRVTITCHSSQDINSNIGWLQQKPGKSFKGLIYHGTNLDDGVPSRFSGSGSGTDYTLTISSLQPEDFATYYCVQYAQFPWTFGGGTKLEIKR | 1.29 | 224 |
| DVD772 (bispecific antibody, DVD-Ig; HC L, LC L; variable parts only) VH: EVQLVESGGGLVQPGGSLRLSCAASGFTFSIYSMNWVRQAPGKGLEWVSYISSSSSTIYYADSVKGRFTISRDNAKNSLYLQMNSLRDEDTAVYYCARDRGDFDAFDIWGQGTMVTVSSASTKGPSVFPLAPQVQLQESGPGLVKPSQTLSLTCTVSGYSISSDFAWNWIRQPPGKGLEWMGYISYSGNTRYQPSLKSRITISRDTSKNQFFLKLNSVTAADTATYYCVTAGRGFPYWGQGTLVTVSS VL: DIQMTQSPSSLSASVGDRVTITCQASQDITNYLNWYQQKPGKAPKLLIYDASNLETGVPSRFSGSGSGTDFTFTISSLQPEDIATYNCQQCENFPITFGQGTRLEIKRTVAAPSVFIFPPDIQMTQSPSSMSVSVGDRVTITCHSSQDINSNIGWLQQKPGKSFKGLIYHGTNLDDGVPSRFSGSGSGTDYTLTISSLQPEDFATYYCVQYAQFPWTFGGGTKLEIKR | 31.4 | 77.2 |
| DVD802 (bispecific antibody, DVD-Ig; HC L, LC S; variable parts only) VH: EVQLVESGGGLVQPGGSLRLSCAASGFTFSIYSMNWVRQAPGKGLEWVSYISSSSSTIYYADSVKGRFTISRDNAKNSLYLQMNSLRDEDTAVYYCARDRGDFDAFDIWGQGTMVTVSSASTKGPSVFPLAPQVQLQESGPGLVKPSQTLSLTCTVSGYSISSDFAWNWIRQPPGKGLEWMGYISYSGNTRYQPSLKSRITISRDTSKNQFFLKLNSVTAADTATYYCVTAGRGFPYWGQGTLVTVSS VL: DIQMTQSPSSLSASVGDRVTITCQASQDITNYLNWYQQKPGKAPKLLIYDASNLETGVPSRFSGSGSGTDFTFTISSLQPEDIATYNCQQCENFPITFGQGTRLEIKRTVAAPDIQMTQSPSSMSVSVGDRVTITCHSSQDINSNIGWLQQKPGKSFKGLIYHGTNLDDGVPSRFSGSGSGTDYTLTISSLQPEDFATYYCVQYAQFPWTFGGGTKLEIKR | 11.1 | 726 |
| DVD328 (bispecific antibody, DVD-Ig; HC S, LC S; variable parts only) VH: QVQLQQWGAGLLKPSETLSLTCAVYGGSFSGYYWSWIRQPPGKGLEWIGEINHSGSTNYNPSLKSRVTISVETSKNQFSLKLSSVTAADTAVYYCARDKWTWYFDLWGRGTLVTVSSASTKGPQVQLQESGPGLVKPSQTLSLTCTVSGYSISSDFAWNWIRQPPGKGLEWMGYISYSGNTRYQPSLKSRITISRDTSKNQFFLKLNSVTAADTATYYCVTAGRGFPYWGQGTLVTVSS VL: DIEMTQSPDSLAVSLGERATINCRSSQSVLYSSSNRNYLAWYQQNPGQPPKLLIYWASTRESGVPDRFSGSGSGTDFTLTISSLQAEDVAVYYCQQYYSTPRTFGQGTKVEIKRTVAAPDIQMTQSPSSMSVSVGDRVTITCHSSQDINSNIGWLQQKPGKSFKGLIYHGTNLDDGVPSRFSGSGSGTDYTLTISSLQPEDFATYYCVQYAQFPWTFGGGTKLEIKR | 1.14 | 94.9 |
| DVD788 (bispecific antibody, DVD-Ig; HC L, LC L; variable parts only) VH: EVQLLESGGGLVQPGGSLRLSCAASGFTFSHYVMAWVRQAPGKGLEWVSSISSSGGWTLYADSVKGRFTISRDNSKNTLYLQMNSLRAEDTAVYYCTRGLKMATIFDYWGQGTLVTVSSASTKGPSVFPLAPQVQLQESGPGLVKPSQTLSLTCTVSGYSISSDFAWNWIRQPPGKGLEWMGYISYSGNTRYQPSLKSRITISRDTSKNQFFLKLNSVTAADTATYYCVTAGRGFPYWGQGTLVTVSS VL: QSALTQPASVSGSPGQSITISCTGTSSDVGSYNVVSWYQQHPGKAPKLIIYEVSQRPSGVSNRFSGSKSGNTASLTISGLQTEDEADYYCCSYAGSSIFVIFGGGTKVTVLGQPKAAPSVTLFPPDIQMTQSPSSMSVSVGDRVTITCHSSQDINSNIGWLQQKPGKSFKGLIYHGTNLDDGVPSRFSGSGSGTDYTLTISSLQPEDFATYYCVQYAQFPWTFGGGTKLEIKR | 3.14 | 18 |
| DVD770 (bispecific antibody, DVD-Ig; HC L, LC L; variable parts only) VH: QVQLQQWGAGLLKPSETLSLTCAVYGGSFSGYYWSWIRQPPGKGLEWIGEINHSGSTNYNPSLKSRVTISVETSKNQFSLKLSSVTAADTAVYYCARDKWTWYFDLWGRGTLVTVSSASTKGPSVFPLAPQVQLQESGPGLVKPSQTLSLTCTVSGYSISSDFAWNWIRQPPGKGLEWMGYISYSGNTRYQPSLKSRITISRDTSKNQFFLKLNSVTAADTATYYCVTAGRGFPYWGQGTLVTVSS VL: DIEMTQSPDSLAVSLGERATINCRSSQSVLYSSSNRNYLAWYQQNPGQPPKLLIYWASTRESGVPDRFSGSGSGTDFTLTISSLQAEDVAVYYCQQYYSTPRTFGQGTKVEIKRTVAAPSVFIFPPDIQMTQSPSSMSVSVGDRVTITCHSSQDINSNIGWLQQKPGKSFKGLIYHGTNLDDGVPSRFSGSGSGTDYTLTISSLQPEDFATYYCVQYAQFPWTFGGGTKLEIKR | 1.55 | 15.2 |
| DVD800 (bispecific antibody, DVD-Ig; HC L, LC S; variable parts only) VH: QVQLQQWGAGLLKPSETLSLTCAVYGGSFSGYYWSWIRQPPGKGLEWIGEINHSGSTNYNPSLKSRVTISVETSKNQFSLKLSSVTAADTAVYYCARDKWTWYFDLWGRGTLVTVSSASTKGPSVFPLAPQVQLQESGPGLVKPSQTLSLTCTVSGYSISSDFAWNWIRQPPGKGLEWMGYISYSGNTRYQPSLKSRITISRDTSKNQFFLKLNSVTAADTATYYCVTAGRGFPYWGQGTLVTVSS VL: DIEMTQSPDSLAVSLGERATINCRSSQSVLYSSSNRNYLAWYQQNPGQPPKLLIYWASTRESGVPDRFSGSGSGTDFTLTISSLQAEDVAVYYCQQYYSTPRTFGQGTKVEIKRTVAAPDIQMTQSPSSMSVSVGDRVTITCHSSQDINSNIGWLQQKPGKSFKGLIYHGTNLDDGVPSRFSGSGSGTDYTLTISSLQPEDFATYYCVQYAQFPWTFGGGTKLEIKR | 2.06 | 67.3 |

Other lines, results leading:

| EC50 (ErbB3) [nM] | EC50 (EGFR) [nM] | Binder |
| --- | --- | --- |
| 1.19 | 62.4 | DVD832 (bispecific antibody, DVD-Ig; HC S, LC L; variable parts only) VH: EVQLVESGGGLVQPGGSLRLSCAASGFTFSIYSMNWVRQAPGKGLEWVSYISSSSSTIYYADSVKGRFTISRDNAKNSLYLQMNSLRDEDTAVYYCARDRGDFDAFDIWGQGTMVTVSSASTKGPQVQLQESGPGLVKPSQTLSLTCTVSGYSISSDFAWNWIRQPPGKGLEWMGYISYSGNTRYQPSLKSRITISRDTSKNQFFLKLNSVTAADTATYYCVTAGRGFPYWGQGTLVTVSS VL: DIQMTQSPSSLSASVGDRVTITCQASQDITNYLNWYQQKPGKAPKLLIYDASNLETGVPSRFSGSGSGTDFTFTISSLQPEDIATYNCQQCENFPITFGQGTRLEIKRTVAAPSVFIFPPDIQMTQSPSSMSVSVGDRVTITCHSSQDINSNIGWLQQKPGKSFKGLIYHGTNLDDGVPSRFSGSGSGTDYTLTISSLQPEDFATYYCVQYAQFPWTFGGGTKLEIKR |
| 3.23 | 16.7 | DVD848 (bispecific antibody, DVD-Ig; HC S, LC L; variable parts only) VH: EVQLLESGGGLVQPGGSLRLSCAASGFTFSHYVMAWVRQAPGKGLEWVSSISSSGGWTLYADSVKGRFTISRDNSKNTLYLQMNSLRAEDTAVYYCTRGLKMATIFDYWGQGTLVTVSSASTKGPQVQLQESGPGLVKPSQTLSLTCTVSGYSISSDFAWNWIRQPPGKGLEWMGYISYSGNTRYQPSLKSRITISRDTSKNQFFLKLNSVTAADTATYYCVTAGRGFPYWGQGTLVTVSS VL: QSALTQPASVSGSPGQSITISCTGTSSDVGSYNVVSWYQQHPGKAPKLIIYEVSQRPSGVSNRFSGSKSGNTASLTISGLQTEDEADYYCCSYAGSSIFVIFGGGTKVTVLGQPKAAPSVTLFPPDIQMTQSPSSMSVSVGDRVTITCHSSQDINSNIGWLQQKPGKSFKGLIYHGTNLDDGVPSRFSGSGSGTDYTLTISSLQPEDFATYYCVQYAQFPWTFGGGTKLEIKR |
| 3.32 | 19.3 | DVD818 (bispecific antibody, DVD-Ig; HC L, LC S; variable parts only) VH: EVQLLESGGGLVQPGGSLRLSCAASGFTFSHYVMAWVRQAPGKGLEWVSSISSSGGWTLYADSVKGRFTISRDNSKNTLYLQMNSLRAEDTAVYYCTRGLKMATIFDYWGQGTLVTVSSASTKGPSVFPLAPQVQLQESGPGLVKPSQTLSLTCTVSGYSISSDFAWNWIRQPPGKGLEWMGYISYSGNTRYQPSLKSRITISRDTSKNQFFLKLNSVTAADTATYYCVTAGRGFPYWGQGTLVTVSS VL: QSALTQPASVSGSPGQSITISCTGTSSDVGSYNVVSWYQQHPGKAPKLIIYEVSQRPSGVSNRFSGSKSGNTASLTISGLQTEDEADYYCCSYAGSSIFVIFGGGTKVTVLGQPKAAPDIQMTQSPSSMSVSVGDRVTITCHSSQDINSNIGWLQQKPGKSFKGLIYHGTNLDDGVPSRFSGSGSGTDYTLTISSLQPEDFATYYCVQYAQFPWTFGGGTKLEIKR |
| 1.43 | 42.7 | DVD830 (bispecific antibody, DVD-Ig; HC S, LC L; variable parts only) VH: QVQLQQWGAGLLKPSETLSLTCAVYGGSFSGYYWSWIRQPPGKGLEWIGEINHSGSTNYNPSLKSRVTISVETSKNQFSLKLSSVTAADTAVYYCARDKWTWYFDLWGRGTLVTVSSASTKGPQVQLQESGPGLVKPSQTLSLTCTVSGYSISSDFAWNWIRQPPGKGLEWMGYISYSGNTRYQPSLKSRITISRDTSKNQFFLKLNSVTAADTATYYCVTAGRGFPYWGQGTLVTVSS VL: DIEMTQSPDSLAVSLGERATINCRSSQSVLYSSSNRNYLAWYQQNPGQPPKLLIYWASTRESGVPDRFSGSGSGTDFTLTISSLQAEDVAVYYCQQYYSTPRTFGQGTKVEIKRTVAAPSVFIFPPDIQMTQSPSSMSVSVGDRVTITCHSSQDINSNIGWLQQKPGKSFKGLIYHGTNLDDGVPSRFSGSGSGTDYTLTISSLQPEDFATYYCVQYAQFPWTFGGGTKLEIKR |
